Data published in US6566088B1, “Prolyl-4-hydroxylases” (Board of Regents, The University of Texas System, priority 2001, dated 2003).

Legend:
[1] = test system: transfected cell cultures; test: Visual inspection of cell cultures transfected with HPH 1 expression vector
human HIF-1a ODD peptide = human HIF-1a ODD peptide (Homo sapiens, UniProt Q16665, M561A/M568A); test: [35S]-pVHL pull-down prolyl hydroxylase assay with biotinylated HIF-1a ODD peptide; type: biochemical; conditions: for prolyl hydroxylase activity (pVHL association with the biotinylated peptide): enzyme in vitro transcribed/translated in rabbit reticulocyte lysate, ascorbate, 2-oxoglutarate, FeSO4 present
[2] = test system: CMV-driven luciferase reporter; test: Constitutive CMV-driven luciferase reporter co-transfection; type: cell-based, human
[3] = test system: HIF-1a activation of the HRE-driven reporter; test: Hypoxia-responsive (HRE) luciferase reporter co-transfection in 293 cells; type: cell-based, human
Description: To test whether these HPH enzymes represent part of the hypoxic response pathway in vivo we first co-transfected (21) human embryonic kidney 293 cells with a hypoxia-responsive luciferase reporter (22) and increasing amounts of a vector expressing human HIF-1a under the control of the constitutive CMV promoter. Forced overexpression of HIF-1a can overcome the degradation pathway, resulting in accumulation of the HIF transcription factor under normoxic conditions and subsequent induction of the HRE-containing HIF reporter gene (22). […] Mutation of His^135, Asp^137 or His^196 to alanine eliminated the interfering activity of HPH 1 in these transfection assays. […] Finally, the ability of HPH 1 to diminish induction of the HIF-responsive luciferase reporter was lost when cells were incubated in an atmosphere containing 0.5% O2.
21. Transfection experiments were performed as in (22) with DNA amounts indicated in the text. Western blot analysis using an antibody specific for the carboxy-terminal V5 tag was used to confirm expression of each polypeptide following transfection of 1 μg of each expression vector.

B1: HPH 1: human HIF prolyl hydroxylase 1, SEQ ID NO:1, Genbank XM_012332 (protein)
chain: MPLGHIMRLDLEKIALEYIVPCLHEVGFCYLDNFLGEVVGDCVLERVKQLHCTGALRDGQLAGPRAGVSKRHLRGDQITWIGGNEEGCEAISFLLSLIDRLVLYCGSRLGKYYVKERSKAMVACYPGNGTGYVRHVDNPNGDGRCITCIYYLNKNWDAKLHGGILRIFPEGKSFIADVEPIFDRLLFFWSDRRNPHEVQPSYATRYAMTVWYFDAEERAEAKKKFRNLTRKTESALTED
modifications: human
- programmed cell death [1]: no overt evidence of programmed cell death
- prolyl hydroxylase activity (pVHL association with the biotinylated peptide) (human HIF-1a ODD peptide): able to enhance pVHL association
- effect on CMV-driven luciferase reporter expression [2]: did not attenuate
- effect on induction of the HIF-dependent luciferase reporter ([3]; 293 cells, normoxic, 30 ng or 100 ng HIF-1a expression vector, 3 ng CMV-driven vector): able to attenuate
- ability to diminish induction of the HIF-responsive luciferase reporter ([3]; atmosphere containing 0.5% O2): lost

B2: D137A: HPH 1 with Asp137 changed to alanine (protein)
chain: MPLGHIMRLDLEKIALEYIVPCLHEVGFCYLDNFLGEVVGDCVLERVKQLHCTGALRDGQLAGPRAGVSKRHLRGDQITWIGGNEEGCEAISFLLSLIDRLVLYCGSRLGKYYVKERSKAMVACYPGNGTGYVRHVANPNGDGRCITCIYYLNKNWDAKLHGGILRIFPEGKSFIADVEPIFDRLLFFWSDRRNPHEVQPSYATRYAMTVWYFDAEERAEAKKKFRNLTRKTESALTED
modifications: left off: small tags and cut ends
- prolyl hydroxylase activity (pVHL association with the biotinylated peptide) (human HIF-1a ODD peptide): eliminated the prolyl hydroxylase activity

B3: H135A: HPH 1 with His135 changed to alanine (protein)
chain: MPLGHIMRLDLEKIALEYIVPCLHEVGFCYLDNFLGEVVGDCVLERVKQLHCTGALRDGQLAGPRAGVSKRHLRGDQITWIGGNEEGCEAISFLLSLIDRLVLYCGSRLGKYYVKERSKAMVACYPGNGTGYVRAVDNPNGDGRCITCIYYLNKNWDAKLHGGILRIFPEGKSFIADVEPIFDRLLFFWSDRRNPHEVQPSYATRYAMTVWYFDAEERAEAKKKFRNLTRKTESALTED
modifications: left off: small tags and cut ends
- prolyl hydroxylase activity (pVHL association with the biotinylated peptide) (human HIF-1a ODD peptide): eliminated the prolyl hydroxylase activity

B4: H196A: HPH 1 with His196 changed to alanine (protein)
chain: MPLGHIMRLDLEKIALEYIVPCLHEVGFCYLDNFLGEVVGDCVLERVKQLHCTGALRDGQLAGPRAGVSKRHLRGDQITWIGGNEEGCEAISFLLSLIDRLVLYCGSRLGKYYVKERSKAMVACYPGNGTGYVRHVDNPNGDGRCITCIYYLNKNWDAKLHGGILRIFPEGKSFIADVEPIFDRLLFFWSDRRNPAEVQPSYATRYAMTVWYFDAEERAEAKKKFRNLTRKTESALTED
modifications: left off: small tags and cut ends
- prolyl hydroxylase activity (pVHL association with the biotinylated peptide) (human HIF-1a ODD peptide): eliminated the prolyl hydroxylase activity

B5: HPH 2: human HPH 1 paralog, Genbank AF229245; splice-variant in which residues 76-177 are omitted was used (protein)
chain: ANDSGGPGGPSPSERDRQYCELCGKMENLLRCSRCRSSFYCCKEHQRQDWKKHKLVCQGSEGALGHGVGPHQHSGPAPPAAVPPPRAGAREPRKAAARRDNASGDAAKGKVKAKPPADPAAAASPCRAAAGGQGSAVAAEAEPGKEEPPARSSLFQEKANLYPPSNTPGDALSPGGGLRPNGQTKPLPALKLALEYIVPCMNKHGICVVDDFLGKETGQQIGDEVRALHDTGKFTDGQLVSQKSDSSKDIRGDKITWIEGKEPGCETIGLLMSSMDDLIRHCNGKLGSYKINGRTKAMVACYPGNGTGYVRHVDNPNGDGRCVTCIYYLNKDWDAKVSGGILRIFPEGKAQFADIEPKFDRLLFFWSDRRNPHEVQPAYATRYAITVWYFDADERARAKVKYLTGEKGVRVELNKPSDSVGKDVF
modifications: left off: small tags and cut ends
- hydroxylation of the HIF-1a peptide substrate (human HIF-1a ODD peptide; enzyme expressed in bacterial cells and purified by affinity chromatography): able to hydroxylate
- prolyl hydroxylase activity (pVHL association with the biotinylated peptide) (human HIF-1a ODD peptide): catalyze the hydroxylation
